The record followed here is patent US20230167458A1, “FORSKOLIN-INDUCIBLE PROMOTERS AND HYPOXIA-INDUCIBLE PROMOTERS” (ASKLEPIOS BIOPHARMACEUTICAL, INC., priority 2020, published 2023).

One series relates to CHO-GS-KSV1 cell line. The series can be described thus: SEAP expression in stably transfected CHO-GS-KSV1, forskolin or NKH477 induction. It counts as cell-based, chinese hamster. The note with it: stable CHO-GS-KSV1, SEAP, forskolin or NKH477. As to the method: The forskolin-inducible promoters were then tested in a stably transfected CHO-GS-KSV1 cell line.
• CD-CHO media (Life technologies, CAT #10743029) • Corning 125 mL Polycarbonate Erlenmeyer Flask with Vent Cap (CAT #734-1885). • Gene Pulser® Electroporation Cuvettes, 0.4 cm gap (BioRad, CAT #165-2088) • Gene Pulser Xcell Total System (BioRad, CAT, #1652660) • GS-vector DNA ([…] in 100 μL TE buffer) linearised with Sca1 • Suspension cultures of CHOK1SV GS-KO host cells.
Cell suspensions of 6×10^5 cells per mL were incubated on an orbital shaker set at 8% CO2, 20% O2, 37° C., 85% relative humidity and 140 rpm overnight. 2.86×10^7 cells were centrifuged at 200 g for 3 minutes. Media was then aspirated and cell pellet resuspended in 2 mL fresh CD-CHO media to obtain a concentration of 1.43×10^7 cells per mL. 700 μL of cell suspension was added to each of two electroporation cuvettes each containing […] of linearised DNA in 100 μL of sterile TE buffer (Thermofisher, 12090015). Each cuvette was electroporated, delivering a single pulse of 300V, […] with resistance to infinity. Immediately after delivery of pulse electroplated cells were transferred to Erlenmeyer 125 mL flask containing 20 mL of CD-CHO media pre-warmed to 37° C. Electroporated cells from two cuvettes are combined into a single 125 mL flask to generate one pool of cells. Cells are cultured on an orbital shaker set at 8% CO2, 20% O2, 37° C., 85% relative humidity and 140 rpm. Cells are transferred to fresh CD-CHO media 24 hours after transfection and cell cultures monitored and given fresh CD-CHO media every 2-4 days. Usually after about 10-14 days cell numbers will be high enough to start passaging.
The transfected DNA was the pXC-17.4 expression vector (Lonza Biologics plc) where one of the promoter constructs (or a control promoter (CMV-IE) have been cloned upstream of the secreted alkaline phosphatase (SEAP) gene, which had been cloned into the multiple cloning site within the vector expression cassette. Promoters were closed into the pXC-17.4 vector using Gibson assembly. The pXC-17.4 expression vector is designed for making stable cell lines in the CHO-GSK1SV cell line as it contains the […] gene which has been knocked out of the cell line. Therefore, selection of cells in glutamine drop-out medium will select for cells that have stably integrated the plasmid.
The responsiveness of the RTV-019 promoter to different concentrations of forskolin and […] was tested in the stably transfected CHO-GS-KSV1 cell line. To this end, the stably transfected CHO-GS cells were seeded at 500,000 cells/ml and allowed to grow for 24 hrs. At this point the cells were induced by addition of the respective concentrations of forskolin and NKH477 and SEAP expression was measured as described below after 24 hours.
The promoter activity and inducibility of FMP-02, FORCYB-001, RTV-017, FORCSV-10, FOR-CMC-009, FLP-01 and RTV-019 were also tested in the stably transfected CHO-GS-KSV1 cell line. To this end, the stably transfected CHO-GS cells were seeded at 500,000 cells/ml and allowed to grow for 24 hrs. At this point the cells were exposed to […] forskolin or […] NKH477 for 24 hours. After this point, the SEAP activity in the medium was assessed as described below.
SEAP Reporter Gene Assay, chemiluminescent (Roche, CAT #11 779 842 001) was used to measure SEAP activity as per the manufacturer's protocol. All reagents and samples were fully pre-equilibrated at room temperature. Culture supernatant was collected from the stably transfected CHO-GS at the specific time points (0 h and 24 h). The supernatant was diluted 1:4 in dilution buffer and heat treated at 65° C. for 30 minutes. The heat-treated sample was then centrifuged for 30 s at maximum speed. 50 μl of the heat-treated sample was then added to 5 μl of inactivation buffer and incubated for 5 min at room temperature. 50 μl of substrate reagent was then added and incubated for 10 min at room temperature. […]

For the next series, the system named is HEK293-F. The series can be described thus: Luciferase time course after forskolin induction, transient transfection of suspension HEK293-F. It counts as cell-based, human. The following applies: 20 µM forskolin. The protocol:
The tested promoters were synthesised directly upstream of the ATG of PM-RQ plasmid and the suspension cell lines were transiently transfected with the PM-RQ plasmid.
40 ml of cells were grown in a 250 ml vented Erlenmeyer flask (Sigma-Aldrich CLS431144) at 37° C., 20% O2, 8% CO2 with agitation at 100 rpm. Cells were seeded as described in the manufacturer's instructions (300,000 cells/ml). HEK293-F were obtained from Thermofisher, R79007.
One day before transfection, the cells were counted using a haemocytometer and split to 500,000 cells/ml.
On the day of transfection, the cells are seeded to 1,000,000 cells/ml in 500 μl of appropriate medium (Freestyle 293 expression medium, 12338002) in a 24 well plate. […] of DNA per well was then added to 10 μl of OptiMem medium (Thermofisher; 11058021) and incubated for 5 minutes at room temperature.
Concurrently, 0.625 μl of Max reagent (Thermofisher, 16447100) was made up to 10 μl by addition of OptiMem and incubated for 5 minutes at room temperature. After this incubation, both mixes were added to the same tube and incubated at room temperature for 25-30 minutes. […]
24 hours after transfection, the promoters were induced by addition of […] forskolin and luciferase activity was measured 0, 3, 5 and 24 hours after induction. Luciferase activity was measured as previously described.

B1: FMP-02: synthetic forskolin-inducible promoter, SEQ ID NO: 41; 8× AP1(1) TFBS and MinTK minimal promoter (nucleic acid)
DNA: TGAGTCAGATGATGCGTAGCTAGTAGTTGAGTCAGATGATGCGTAGCTAGTAGTTGAGTCAGATGATGCGTAGCTAGTAGTTGAGTCAGATGATGCGTAGCTAGTAGTTGAGTCAGATGATGCGTAGCTAGTAGTTGAGTCAGATGATGCGTAGCTAGTAGTTGAGTCAGATGATGCGTAGCTAGTAGTTGAGTCAGTAGTCGTATGCTGATGCGCAGTTAGCGTAGCTGAGGTACCGTCGACGATATCGGATCCTTCGCATATTAAGGTGACGCGTGTGGCCTCGAACACCGAGCGACCCTGCAGCGACCCGCTTAA
modifications: Synp-FMP-02
notes: 8× AP1(1) TFBS and MinTK minimal promoter
Turning to B1, in the series on CHO-GS-KSV1 cell line, the “relative rank of promoter strength” value was “weakest”. Also, in the series with HEK293-F, the “relative rank of promoter (fold induction/strength)” value was “weakest”.
